Tested on: Escherichia coli TOP10
Assay: shrunken log2 fold change of peptide-encoding DNA abundance (4.5 h post-induction vs induction); higher = less antimicrobial activity (less host growth inhibition)
Details: time post-induction: 4.5 h; library: site-saturation at positions 5, 18, 19, 20
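Also: peptides expressed intracellularly from a pBAD plasmid library in pooled LB shake-flask culture, induced with 0.3% L-arabinose, DNA abundance read by NGS, three biological replicates, DESeq2 with apeglm shrinkage.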

Sequence	shrunken log2 fold change
RRIRKRPPRLPRPRPRPGDMPRP	0.277
RRIRKRPPRLPRPRPRPGFVPRP	0.259
RRIRKRPPRLPRPRPRPGHEPRP	0.127
RRIRKRPPRLPRPRPRPGINPRP	0.369
RRIRKRPPRLPRPRPRPGKHPRP	0.258
RRIRKRPPRLPRPRPRPGKIPRP	0.494
RRIRKRPPRLPRPRPRPGKNPRP	-0.181
RRIRKRPPRLPRPRPRPGLLPRP	0.494
RRIRKRPPRLPRPRPRPGMFPRP	-0.126
RRIRKRPPRLPRPRPRPGMPPRP	0.625
RRIRKRPPRLPRPRPRPGNQPRP	0.0471
RRIRKRPPRLPRPRPRPGNWPRP	0.701
RRIRKRPPRLPRPRPRPGQRPRP	0.328
RRIRKRPPRLPRPRPRPGQYPRP	0.0797
RRIRKRPPRLPRPRPRPGTEPRP	0.542
RRIRKRPPRLPRPRPRPGVCPRP	0.87
RRIRKRPPRLPRPRPRPGVPPRP	0.364
RRIRKRPPRLPRPRPRPGVSPRP	0.497
RRIRKRPPRLPRPRPRPGVTPRP	0.409
RRIRKRPPRLPRPRPRPGWNPRP	0.106
RRIRKRPPRLPRPRPRPGYTPRP	-0.0679
RRIRKRPPRLPRPRPRPGYWPRP	-0.00764
RRIRKRPPRLPRPRPRPHAEPRP	0.126
RRIRKRPPRLPRPRPRPHDIPRP	0.168
RRIRKRPPRLPRPRPRPHEKPRP	1.1

Sequence	shrunken log2 fold change
RRIRKRPPRLPRPRPRPHGQPRP	-0.0371
RRIRKRPPRLPRPRPRPHHGPRP	-0.11
RRIRKRPPRLPRPRPRPHITPRP	-0.167
RRIRKRPPRLPRPRPRPHLMPRP	-0.129
RRIRKRPPRLPRPRPRPHMKPRP	-0.0471
RRIRKRPPRLPRPRPRPHMMPRP	0.217
RRIRKRPPRLPRPRPRPHNTPRP	-0.152
RRIRKRPPRLPRPRPRPHPSPRP	0.163
RRIRKRPPRLPRPRPRPHRFPRP	-0.0599
RRIRKRPPRLPRPRPRPHRLPRP	0.164
RRIRKRPPRLPRPRPRPHRNPRP	-0.167
RRIRKRPPRLPRPRPRPHSKPRP	0.0726
RRIRKRPPRLPRPRPRPHTHPRP	-0.0896
RRIRKRPPRLPRPRPRPHVMPRP	0.0754
RRIRKRPPRLPRPRPRPHVPPRP	0.207
RRIRKRPPRLPRPRPRPHVSPRP	-0.00259
RRIRKRPPRLPRPRPRPHWHPRP	-0.0666
RRIRKRPPRLPRPRPRPHWKPRP	-0.00804
RRIRKRPPRLPRPRPRPHYQPRP	-0.101
RRIRKRPPRLPRPRPRPHYYPRP	-0.0852
RRIRKRPPRLPRPRPRPIAYPRP	-0.0799
RRIRKRPPRLPRPRPRPICTPRP	-0.0207
RRIRKRPPRLPRPRPRPIDEPRP	-0.148
RRIRKRPPRLPRPRPRPIDRPRP	-0.0769
RRIRKRPPRLPRPRPRPIFHPRP	0.381

Sequence	shrunken log2 fold change
RRIRKRPPRLPRPRPRPIHDPRP	0.00115
RRIRKRPPRLPRPRPRPIIHPRP	-0.0792
RRIRKRPPRLPRPRPRPIKCPRP	-0.29
RRIRKRPPRLPRPRPRPILCPRP	0.00753
RRIRKRPPRLPRPRPRPILEPRP	0.261
RRIRKRPPRLPRPRPRPILKPRP	0.117
RRIRKRPPRLPRPRPRPIMKPRP	0.16
RRIRKRPPRLPRPRPRPIMQPRP	-0.0251
RRIRKRPPRLPRPRPRPIPAPRP	0.945
RRIRKRPPRLPRPRPRPIQMPRP	-0.107
RRIRKRPPRLPRPRPRPIRRPRP	0.0536
RRIRKRPPRLPRPRPRPIRVPRP	-0.0018
RRIRKRPPRLPRPRPRPISGPRP	-7.33e-05
RRIRKRPPRLPRPRPRPISPPRP	0.305
RRIRKRPPRLPRPRPRPITQPRP	-0.00651
RRIRKRPPRLPRPRPRPIWQPRP	0.163
RRIRKRPPRLPRPRPRPIYAPRP	0.144
RRIRKRPPRLPRPRPRPIYSPRP	-0.41
RRIRKRPPRLPRPRPRPKDNPRP	0.297
RRIRKRPPRLPRPRPRPKDPPRP	0.367
RRIRKRPPRLPRPRPRPKDTPRP	0.26
RRIRKRPPRLPRPRPRPKDYPRP	-0.0531
RRIRKRPPRLPRPRPRPKEEPRP	0.0277
RRIRKRPPRLPRPRPRPKGVPRP	0.286
RRIRKRPPRLPRPRPRPKHKPRP	0.362

Sequence	shrunken log2 fold change
RRIRKRPPRLPRPRPRPKIWPRP	0.475
RRIRKRPPRLPRPRPRPKKHPRP	0.276
RRIRKRPPRLPRPRPRPKMDPRP	0.158
RRIRKRPPRLPRPRPRPKMEPRP	0.368
RRIRKRPPRLPRPRPRPKMFPRP	-0.146
RRIRKRPPRLPRPRPRPKNAPRP	0.216
RRIRKRPPRLPRPRPRPKNPPRP	0.0739
RRIRKRPPRLPRPRPRPKQLPRP	0.417
RRIRKRPPRLPRPRPRPKSWPRP	0.308
RRIRKRPPRLPRPRPRPKVIPRP	0.156
RRIRKRPPRLPRPRPRPKVLPRP	0.0605
RRIRKRPPRLPRPRPRPKWHPRP	0.0114
RRIRKRPPRLPRPRPRPKWPPRP	-0.031
RRIRKRPPRLPRPRPRPKWSPRP	0.506
RRIRKRPPRLPRPRPRPKWWPRP	0.238
RRIRKRPPRLPRPRPRPKWYPRP	-0.235
RRIRKRPPRLPRPRPRPLAWPRP	0.928
RRIRKRPPRLPRPRPRPLDIPRP	-0.0215
RRIRKRPPRLPRPRPRPLDWPRP	0.474
RRIRKRPPRLPRPRPRPLEMPRP	0.659
RRIRKRPPRLPRPRPRPLEQPRP	0.0352
RRIRKRPPRLPRPRPRPLFWPRP	0.593
RRIRKRPPRLPRPRPRPLGDPRP	0.227
RRIRKRPPRLPRPRPRPLGGPRP	0.288
RRIRKRPPRLPRPRPRPLHAPRP	0.449

Sequence	shrunken log2 fold change
RRIRKRPPRLPRPRPRPLHDPRP	0.169
RRIRKRPPRLPRPRPRPLHLPRP	-0.198
RRIRKRPPRLPRPRPRPLHRPRP	0.36
RRIRKRPPRLPRPRPRPLHWPRP	0.59
RRIRKRPPRLPRPRPRPLIEPRP	0.105
RRIRKRPPRLPRPRPRPLIQPRP	0.112
RRIRKRPPRLPRPRPRPLLGPRP	0.628
RRIRKRPPRLPRPRPRPLLYPRP	0.0166
RRIRKRPPRLPRPRPRPLNLPRP	-0.123
RRIRKRPPRLPRPRPRPLNPPRP	0.129
RRIRKRPPRLPRPRPRPLPRPRP	1.08
RRIRKRPPRLPRPRPRPLQAPRP	1.34
RRIRKRPPRLPRPRPRPLQRPRP	0.331
RRIRKRPPRLPRPRPRPLREPRP	0.718
RRIRKRPPRLPRPRPRPLRNPRP	0.653
RRIRKRPPRLPRPRPRPLSKPRP	0.213
RRIRKRPPRLPRPRPRPLSPPRP	0.615
RRIRKRPPRLPRPRPRPLYIPRP	-0.329
RRIRKRPPRLPRPRPRPMADPRP	-0.000921
RRIRKRPPRLPRPRPRPMANPRP	0.0288
RRIRKRPPRLPRPRPRPMDLPRP	0.198
RRIRKRPPRLPRPRPRPMDYPRP	0.0283
RRIRKRPPRLPRPRPRPMEGPRP	-0.01
RRIRKRPPRLPRPRPRPMEQPRP	0.033
RRIRKRPPRLPRPRPRPMERPRP	-0.024

Sequence	shrunken log2 fold change
RRIRKRPPRLPRPRPRPMETPRP	-0.0146
RRIRKRPPRLPRPRPRPMGGPRP	0.0559
RRIRKRPPRLPRPRPRPMGPPRP	0.339
RRIRKRPPRLPRPRPRPMGYPRP	-0.0267
RRIRKRPPRLPRPRPRPMHVPRP	-0.0434
RRIRKRPPRLPRPRPRPMLAPRP	0.843
RRIRKRPPRLPRPRPRPMPRPRP	0.276
RRIRKRPPRLPRPRPRPMQAPRP	1.15
RRIRKRPPRLPRPRPRPMTSPRP	0.0716
RRIRKRPPRLPRPRPRPMVLPRP	-0.191
RRIRKRPPRLPRPRPRPMVNPRP	1.55
RRIRKRPPRLPRPRPRPMVTPRP	0.231
RRIRKRPPRLPRPRPRPMVYPRP	-0.0451
RRIRKRPPRLPRPRPRPMWCPRP	-0.113
RRIRKRPPRLPRPRPRPMYFPRP	-0.0354
RRIRKRPPRLPRPRPRPNCDPRP	0.142
RRIRKRPPRLPRPRPRPNCFPRP	0.274
RRIRKRPPRLPRPRPRPNCKPRP	0.495
RRIRKRPPRLPRPRPRPNDDPRP	0.414
RRIRKRPPRLPRPRPRPNDNPRP	-0.076
RRIRKRPPRLPRPRPRPNEDPRP	-0.00122
RRIRKRPPRLPRPRPRPNEPPRP	0.027
RRIRKRPPRLPRPRPRPNFLPRP	-0.185
RRIRKRPPRLPRPRPRPNGIPRP	-0.029
RRIRKRPPRLPRPRPRPNHCPRP	0.0144

Reference: the supplement of paper PMC9112550, “Optimization of the antimicrobial peptide Bac7 by deep mutational scanning” (BMC Biology, 2022)
